Here are results for 21 molecules from publication doi:10.1101/2025.05.22.655678.

B1: 59bp-GAG (dsDNA)
DNA 1: TTTTTTTTTTTTTTTTTTTTTTTTTTTTGAGTTTTTTTTTTTTTTTTTTTTTTTTTTTT
DNA 2: AAAAAAAAAAAAAAAAAAAAAAAAAAAACTCAAAAAAAAAAAAAAAAAAAAAAAAAAAA
modifications: N6-methyladenine at A of GAG (position 30, printed M6A); legend says M.EcoGII-methylated
B2: ss-59nt-GAG (ssDNA)
DNA: TTTTTTTTTTTTTTTTTTTTTTTTTTTTGAGTTTTTTTTTTTTTTTTTTTTTTTTTTTT
modifications: N6-methyladenine at A of GAG (position 30)
B3: 60bp-2-V (dsDNA)
DNA 1: GGGCTACGTCTTGCTGGCGTTCGCGACTTTTTGCTGGATGGCCTTCCCCATTATGATTCT
DNA 2: AGAATCATAATGGGGAAGGCCATCCAGCAAAAAGTCGCGAACGCCAGCAAGACGTAGCCC
modifications: N6-methyladenine in any context (M.EcoGII)
B4: GCAAG (dsDNA)
DNA 1: GGGCTACGTCTTGCTGGCGTTCGCGACGCAAGGCTGGATGGCCTTCCCCATTATGATTCT
DNA 2: AGAATCATAATGGGGAAGGCCATCCAGCCTTGCGTCGCGAACGCCAGCAAGACGTAGCCC
modifications: N6-methyladenine in any context (M.EcoGII)
B5: GCGAA (dsDNA)
DNA 1: GGGCTACGTCTTGCTGGCGTTCGCGACGCGAAGCTGGATGGCCTTCCCCATTATGATTCT
DNA 2: AGAATCATAATGGGGAAGGCCATCCAGCTTCGCGTCGCGAACGCCAGCAAGACGTAGCCC
modifications: N6-methyladenine in any context (M.EcoGII)
B6: GGGAG (dsDNA)
DNA 1: GGGCTACGTCTTGCTGGCGTTCGCGACGGGAGGCTGGATGGCCTTCCCCATTATGATTCT
DNA 2: AGAATCATAATGGGGAAGGCCATCCAGCCTCCCGTCGCGAACGCCAGCAAGACGTAGCCC
modifications: N6-methyladenine in any context (M.EcoGII)
B7: GCTAG (dsDNA)
DNA 1: GGGCTACGTCTTGCTGGCGTTCGCGACGCTAGGCTGGATGGCCTTCCCCATTATGATTCT
DNA 2: AGAATCATAATGGGGAAGGCCATCCAGCCTAGCGTCGCGAACGCCAGCAAGACGTAGCCC
modifications: N6-methyladenine in any context (M.EcoGII)
B8: CCGAG (dsDNA)
DNA 1: GGGCTACGTCTTGCTGGCGTTCGCGACCCGAGGCTGGATGGCCTTCCCCATTATGATTCT
DNA 2: AGAATCATAATGGGGAAGGCCATCCAGCCTCGGGTCGCGAACGCCAGCAAGACGTAGCCC
modifications: N6-methyladenine in any context (M.EcoGII)
B9: TCGAG (dsDNA)
DNA 1: GGGCTACGTCTTGCTGGCGTTCGCGACTCGAGGCTGGATGGCCTTCCCCATTATGATTCT
DNA 2: AGAATCATAATGGGGAAGGCCATCCAGCCTCGAGTCGCGAACGCCAGCAAGACGTAGCCC
modifications: N6-methyladenine in any context (M.EcoGII)
B10: GCGAT (dsDNA)
DNA 1: GGGCTACGTCTTGCTGGCGTTCGCGACGCGATGCTGGATGGCCTTCCCCATTATGATTCT
DNA 2: AGAATCATAATGGGGAAGGCCATCCAGCATCGCGTCGCGAACGCCAGCAAGACGTAGCCC
modifications: N6-methyladenine in any context (M.EcoGII)
B11: GCCAG (dsDNA)
DNA 1: GGGCTACGTCTTGCTGGCGTTCGCGACGCCAGGCTGGATGGCCTTCCCCATTATGATTCT
DNA 2: AGAATCATAATGGGGAAGGCCATCCAGCCTGGCGTCGCGAACGCCAGCAAGACGTAGCCC
modifications: N6-methyladenine in any context (M.EcoGII)
B12: GTGAG (dsDNA)
DNA 1: GGGCTACGTCTTGCTGGCGTTCGCGACGTGAGGCTGGATGGCCTTCCCCATTATGATTCT
DNA 2: AGAATCATAATGGGGAAGGCCATCCAGCCTCACGTCGCGAACGCCAGCAAGACGTAGCCC
modifications: N6-methyladenine in any context (M.EcoGII)
B13: GAGAG (dsDNA)
DNA 1: GGGCTACGTCTTGCTGGCGTTCGCGACGAGAGGCTGGATGGCCTTCCCCATTATGATTCT
DNA 2: AGAATCATAATGGGGAAGGCCATCCAGCCTCTCGTCGCGAACGCCAGCAAGACGTAGCCC
modifications: N6-methyladenine in any context (M.EcoGII)
B14: GCGAC (dsDNA)
DNA 1: GGGCTACGTCTTGCTGGCGTTCGCGACGCGACGCTGGATGGCCTTCCCCATTATGATTCT
DNA 2: AGAATCATAATGGGGAAGGCCATCCAGCGTCGCGTCGCGAACGCCAGCAAGACGTAGCCC
modifications: N6-methyladenine in any context (M.EcoGII)
B15: 60bp-7-V (dsDNA)
DNA 1: CGGCGATTTATGCCGCCTCGTTTTTCACATGGAACGGGTTGGCATGGATTGTAGGCGCCG
DNA 2: CGGCGCCTACAATCCATGCCAACCCGTTCCATGTGAAAAACGAGGCGGCATAAATCGCCG
modifications: N6-methyladenine in any context (M.EcoGII)
B16: 60bp-5 (dsDNA)
DNA 1: TGACGACCATCAGGGACAGCTTCAAGGATCGCTCGCGGCTCTTACCAGCCTAACTTCGAT
DNA 2: ATCGAAGTTAGGCTGGTAAGAGCCGCGAGCGATCCTTGAAGCTGTCCCTGATGGTCGTCA
modifications: N6-methyladenine in any context (M.EcoGII)
B17: 60bp-4 (dsDNA)
DNA 1: GGATGCCCGCGTTGCAGGCCATGCTGTCCAGGCAGGTAGATGACGACCATCAGGGACAGC
DNA 2: GCTGTCCCTGATGGTCGTCATCTACCTGCCTGGACAGCATGGCCTGCAACGCGGGCATCC
modifications: N6-methyladenine in any context (M.EcoGII)
B18: 60bp-2 (dsDNA)
DNA 1: GGGCTACGTCTTGCTGGCGTTCGCGACGCGAGGCTGGATGGCCTTCCCCATTATGATTCT
DNA 2: AGAATCATAATGGGGAAGGCCATCCAGCCTCGCGTCGCGAACGCCAGCAAGACGTAGCCC
modifications: N6-methyladenine in any context (M.EcoGII)
B19: 60bp-3 (dsDNA)
DNA 1: GCCTTCCCCATTATGATTCTTCTCGCTTCCGGCGGCATCGGGATGCCCGCGTTGCAGGCC
DNA 2: GGCCTGCAACGCGGGCATCCCGATGCCGCCGGAAGCGAGAAGAATCATAATGGGGAAGGC
modifications: N6-methyladenine in any context (M.EcoGII)
B20: 60bp-7 (dsDNA)
DNA 1: CGGCGATTTATGCCGCCTCGGCGAGCACATGGAACGGGTTGGCATGGATTGTAGGCGCCG
DNA 2: CGGCGCCTACAATCCATGCCAACCCGTTCCATGTGCTCGCCGAGGCGGCATAAATCGCCG
modifications: N6-methyladenine in any context (M.EcoGII)
B21: 60bp-1 (dsDNA)
DNA 1: AGAAGCAGGCCATTATCGCCGGCATGGCGGCCGACGCGCTGGGCTACGTCTTGCTGGCGT
DNA 2: ACGCCAGCAAGACGTAGCCCAGCGCGTCGGCCGCCATGCCGGCGATAATGGCCTGCTTCT
modifications: N6-methyladenine in any context (M.EcoGII)

The target of the first data set is T1, VchI (Vibrio cholerae).
T1 chain: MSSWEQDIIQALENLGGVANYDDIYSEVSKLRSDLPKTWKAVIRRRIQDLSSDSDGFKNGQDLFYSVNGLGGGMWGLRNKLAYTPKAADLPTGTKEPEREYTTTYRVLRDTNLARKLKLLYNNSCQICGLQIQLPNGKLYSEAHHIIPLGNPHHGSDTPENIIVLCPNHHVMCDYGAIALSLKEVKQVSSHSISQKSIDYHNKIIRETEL
Kind of data set: EMSA. For orientation: A gel shift assay detects complexes by their altered migration in electrophoresis.
In the case of B1, the binding result was “binds”.
The same measure, in the same setting: the value for B2 was “no binding”; that for B3 was “no binding”; that for B4 was “no binding”.
For B5, the binding result is given as “no binding”.
Take B6: the binding result is “binds”.
Same read-out and setting: to B7 belongs “no binding”; to B8, “binds”.
On the same count and under the same terms, the value for B9 was “binds”; that for B10 was “no binding”.
Take B11: the binding result is “no binding”.
On to B12, for which the binding result is recorded as “binds”.
Same read-out and setting: the value for B13 was “binds”; that for B14 was “no binding”.
As to B15, the binding result is “binds”.

A further data set addresses T1, VchI. Put plainly: EMSA. This is another data set of the same source.
On to B16, for which the binding result was “binds”.
Same read-out and setting: to B17 belongs “no binding”; to B18, “binds”; to B19, “binds”.
With B20, the binding result was “binds”.
Regarding B21, the binding result is recorded as “no binding”.
